From patent US20180128830A1, “DETECTION OF HUMAN CYTOMEGALOVIRUS IN BREAST CANCER” (priority 2015, published 2018)

How the values were obtained:
MTSS1 = MTSS1 immunofluorescence microscopy; type: cell-based, human; settings: 100 ng/mL, 96 hrs
Method: MDA-MB-231 cells were seeded onto FBS-coated glass coverslips at a density of 2.0×10^5 cells/well and cultured for 48 hrs at 37° C. Cells were treated with 100 ng/mL of purified recombinant cmvIL-10 for 96 hrs, then fixed with 2% paraformaldehyde in DPBS for 20 min, washed, permeabilized with 0.2% Triton-X-100 in PBS for 15 min. The cells were washed and blocked with 10% FBS for 1 hr at 37° C., then incubated with anti-MTSS-1 antibody at a 1:100 dilution for 1 hr at 37° C. followed by the addition of goat anti-mouse TRITC secondary antibody at a 1:150 dilution for 30 min (Life Technologies) and Alexa Fluor 488 phalloidin (Molecular Probes, Eugene, Oreg.). Coverslips were washed and excess fluid was removed before inverting the coverslip onto a glass slide containing 20 μL of DAPI-containing Prolong Gold mounting medium (Life Technologies, Grand Island, N.Y.). Images were taken on a Zeiss AX10 Imager.A1 microscope (Carl Zeiss Inc., Oberkochen, Germany) using AxioVision 4.7.2 imaging software.

Stat3 = assay: Cell-based Stat3 ELISA; parameters: species or system human; settings: varying doses, 15 min
Method: For the Stat3 ELISA, cells were seeded into 96-well dishes at a density of 1×10^4 cell per well, treated with varying doses of cmvIL-10 in triplicate for 15 min, and then lysed in the plate and assayed for total or pStat3 using the Cell-based Stat3 ELISA kit according to manufacturer's instructions (R&D Systems). The detection of hIL-10 in supernatants from MDA-MB-231 cell cultures was performed using the IL-10 ELISA DuoSet kit as directed (R&D Systems).

Stat1 = assay: Western blot for Stat1 phosphorylation in MDA-MB-231 cells; type: cell-based, human; settings: 100 ng/ml, 15 min
Method: For western blotting, cells were treated with 100 ng/ml cmvIL-10, hIL-10, IFNγ or PBS for 15 min, then harvested into cell lysis buffer (150 mM NaCl, 20 mM HEPES, 0.5% Triton-X-100, 1 mM NaOV4, 1 mM EDTA, 0.1% NaN3). Lysates were clarified, proteins were separated via SDS-PAGE, and then transferred to a nitrocellulose membrane. Then membrane was incubated in blocking solution (5% milk+1×TBS-T) for 1 hr, then probed with primary antibody at a 1:1000 dilution (total Stat3 or pStat3, total Stat1 or pStat1) in blocking solution overnight at 4° C. After washing, the membranes were incubated with a 1:2000 dilution of appropriate AP-conjugated secondary antibody and bands were detected using Western Blue stabilized AP substrate (Promega, Madison, Wis.). For analysis of secreted proteins, supernatants were collected at various time points, analyzed by SDS-PAGE and then immunoblotted as above for cmvIL-10, hIL-10, or serpin E1/PAI.

IL-10R = target: T1, IL-10R (Homo sapiens, UniProt Q13651); assay: IL-10R immunofluorescence microscopy; type: cell-based; settings: MDA-MB-231 cells, 100 ng/ml, 15 min
T1 construct: uninfected tumor cells express the IL-10R complex; endogenous in cells; host or cells: MDA-MB-231 human breast cancer cells
T1 sequence (Q13651 22-578): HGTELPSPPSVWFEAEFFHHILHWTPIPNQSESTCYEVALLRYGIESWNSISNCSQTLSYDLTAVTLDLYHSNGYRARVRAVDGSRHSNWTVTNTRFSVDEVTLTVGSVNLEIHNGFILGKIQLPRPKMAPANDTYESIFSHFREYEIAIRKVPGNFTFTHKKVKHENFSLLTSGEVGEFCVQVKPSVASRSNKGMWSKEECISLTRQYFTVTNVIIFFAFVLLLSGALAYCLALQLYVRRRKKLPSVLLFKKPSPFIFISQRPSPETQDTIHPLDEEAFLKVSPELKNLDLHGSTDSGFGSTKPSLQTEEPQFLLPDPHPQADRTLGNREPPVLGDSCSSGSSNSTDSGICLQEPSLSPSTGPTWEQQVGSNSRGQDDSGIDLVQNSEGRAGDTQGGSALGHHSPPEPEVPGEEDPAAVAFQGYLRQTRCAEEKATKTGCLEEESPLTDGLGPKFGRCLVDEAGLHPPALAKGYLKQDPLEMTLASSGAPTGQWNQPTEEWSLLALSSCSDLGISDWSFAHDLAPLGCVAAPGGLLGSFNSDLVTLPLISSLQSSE
T1 sequence (Q08334 20-325 partner): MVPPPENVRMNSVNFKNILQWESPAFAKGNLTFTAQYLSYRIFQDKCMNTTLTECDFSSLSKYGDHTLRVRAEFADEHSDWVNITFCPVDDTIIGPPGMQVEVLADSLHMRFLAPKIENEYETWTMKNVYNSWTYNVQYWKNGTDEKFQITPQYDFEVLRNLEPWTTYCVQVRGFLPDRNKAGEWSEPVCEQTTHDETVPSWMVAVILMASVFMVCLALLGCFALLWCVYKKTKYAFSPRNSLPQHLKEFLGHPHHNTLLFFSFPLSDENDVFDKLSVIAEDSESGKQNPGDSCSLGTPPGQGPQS
Method: MDA-MB-231 cells were seeded into 6-well dishes containing FBS-coated glass coverslips at a density of 2×10^5 cells per well and then incubated for 48 hrs at 37° C. Cell monolayers were washed with PBS, fixed with 4% paraformaldehyde, then permeabilized with 0.2% (w/v) Triton X-100 followed by treatment with ice cold 50% methanol-50% acetone for 30 min. Cells were then blocked with PBS+10% FBS for 1 hr at 37° C. and stained with anti-IL-10Rα antibody (Santa Cruz Biotechnology) at a 1:100 dilution for 1 hr at 37° C. Following three PBS washes, the coverslips were incubated with TRITC-conjugated secondary antibody for 1 hr, washed again, and then mounted on a glass slide using Prolong Gold anti-fade reagent with DAPI (Life Technologies, Grand Island, N.Y.). HFF cells were also grown on coverslips as described, mock- or virus-infected, and stained with anti-IE1 (EMD Millipore) followed by FITC-conjugated secondary antibody. Images were acquired using a Zeiss LSM700 laser scanning confocal microscope using Zen Black software (Carl Zeiss, Inc., Oberkochen, Germany).

B1: cmvIL-10 (protein)
chain: ATTTTIKNTKPQCRPEDYATRLQDLRVTFHRVKPTLQREDDYSVWLDGTVVKGCWGCSVMDWLLRRYLEIVFPAGDHVYPGLKTELHSMRSTLESIYKDMRQCPLLGCGDKSVISRLSQEAERKSDNGTRKGLSELDTLFSRLEEYLHSRK
With B1 the “MTSS1 protein (immunofluorescence)” value (MTSS1) was “dramatic reduction in the amount of MTSS1 protein”, the “amount of Stat3 phosphorylation (pStat3 to total Stat3)” value (Stat3) was “increased in a dose-dependent manner” and the Stat1 phosphorylation (Stat1) was “did not globally activate other cellular effectors, such as Stat1”. The “IL-10R distribution after treatment” value (IL-10R) was “distinct redistribution of IL-10R”.
